Results: patent US20100256217A1 (University of Pennsylvania, published 2010)

Biological target: T1, human CK2β subunit, cloned from HeLa cell cDNA (pcCK2β) (human, UniProt P67870 1-215)
T1 construct: 35S-labeled in vitro translated protein in the in vitro assay; Expressed in transfected 293T cells in the in vivo assay; also called CKβ; CK2 beta
Assay: in vitro binding assay, 35S-labeled in vitro translated proteins, co-immunoprecipitation with anti-His or anti-CK2β, autoradiography

T1 sequence (P67870 whole entry): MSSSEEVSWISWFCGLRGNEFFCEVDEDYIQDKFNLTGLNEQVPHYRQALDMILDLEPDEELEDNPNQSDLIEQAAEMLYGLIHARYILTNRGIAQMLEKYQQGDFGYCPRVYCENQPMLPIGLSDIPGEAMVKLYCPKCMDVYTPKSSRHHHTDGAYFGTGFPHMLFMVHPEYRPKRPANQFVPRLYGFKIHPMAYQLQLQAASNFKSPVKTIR

B1: West Nile virus capsid protein with a C-terminal polyhistidine tag, encoded by pcWNV C-His (other)
chain: MSKKPGGPGKSRAVNMLKRGMPRVLSLIGLKRAMLSLIDGKGPIRFVLALLAFFRFTAIAPTRAVLDRWRGVNKQTAMKHLLSFKKELGTLTSAINRRSSKQKKRGGKTGIAVMIGLIASVGA
notes: The capsid is its N-terminal part; also called WNV Cp; protein C; not shown: C-terminal polyhistidine tag from the pcDNA3.1 V5/HisA vector
binding result: no binding
